PMC8626312, “In vitro assembly complex formation of TRAIP CC and RAP 80 zinc finger motif revealed by our study” (Saudi Journal of Biological Sciences, 2021)

B1: TRAIP CC (66–164 aa) (domain or fragment, human, UniProt Q9BWF2 66-164, looked up)
chain: LAQEEENVLDAEFLKNELDNVRAQLSQKDKEKRDSQVIIDTLRDTLEERNATVVSLQQALGKAEMLCSTLKKQMKYLEQQQDETKQAQEEARRLRSKMK
notes: The abstract prints 64–166 for this construct; Calculated mass with the C-terminal His tag is 12325 Da; also called TRAIP coiled-coil domain; TRAIP-1; source: E. coli BL21 (DE3), purified (Ni-NTA, SEC); not shown: His6, C-terminal, kept
B2: RAP80 zinc finger (490–584 aa) (domain or fragment, human, UniProt Q96RL1 490-584, looked up)
chain: KEVAISTFSSSNQVSCPLCDQCFPPTKIERHAMYCNGLMEEDTVLTRRQKEAKTKSDSGTAAQTSLDIDKNEKCYLCKSLVPFREYQCHVDSCLQ
notes: RAP80 (receptor-associated protein 80), human, 719 aa, zinc finger motif, residues 490(K)-584(Q), 95 aa; the methods name pET24a with a C-terminal His6; also called RAP80 Zn finger motif; RAP80-1; source: E. coli BL21 (DE3), purified (Ni-NTA, SEC)
B3: TRAIP RINGCC (1-157aa) (domain or fragment, human, UniProt Q9BWF2 1-157, looked up)
chain: MPIRALCTICSDFFDHSRDVAAIHCGHTFHLQCLIQWFETAPSRTCPQCRIQVGKRTIINKLFFDLAQEEENVLDAEFLKNELDNVRAQLSQKDKEKRDSQVIIDTLRDTLEERNATVVSLQQALGKAEMLCSTLKKQMKYLEQQQDETKQAQEEAR
notes: the methods name pET24a with a C-terminal His6; One sentence of the results prints 1–517; also called TRAIP-5; TRAIP RINGCC (1–517); source: E. coli BL21 (DE3), purified (Ni-NTA, SEC)

Columns and labels:
[1] = biological target: the molecule itself; assay: SEC-MALS; TRAIP CC alone on a size exclusion column HR 10/30, 20 mM Tris-HCl pH 8, 150 mM NaCl; three-angle light scattering and refractive index detectors (Wyatt mini-DAWN TREOS), ASTRA
[2] = biological target: the molecule itself; assay: SEC; each protein alone on Superdex 200 HR 10/30, 20 mM Tris-HCl pH 8.0, 150 mM NaCl; oligomeric state from the elution volume
TRAIP CC (66–164 aa) = biological target: B1; assay: SEC; purified proteins mixed in a molar ratio of approximately 1:1, pre-incubated 30 min at 4 °C, Superdex 200 HR 10/30, 20 mM Tris-HCl pH 8.0, 150 mM NaCl; fractions on SDS-PAGE; settings: both partners purified

Binder: B1
stoichiometry N [1]: 3

Binder: B2
stoichiometry N [2]: 3 | binding result (TRAIP CC (66–164 aa)): binds

Binder: B3
binding result [2]: binds
